Laboratory results from the supplement of paper PMC7877785.
± gives the uncertainty stated by the source.

Assay: self-splicing fitness, log relative to wild type (ln ratio); higher = more splicing; Tetrahymena group I intron in knt gene, E. coli kanamycin selection, DiMSum; sequences stand for … in CUCUCU…GGAGGGAAAAGUUAUCAGGCAUGCACCUGGUAGCUAGUCUUUAAACCAAUAGAUUGCAUCGGUUUAAAAGGCAAGACCGUCAAAUUGCGGGAAAGGGGUCAACAGCCGUUCAGUACCAAGUCUCAGGGGAAACUUUGAGAUGGCCUUGCAAAGGGUAUGGUAAUAAGCUGACGGACAUGGUCCUAACCACGCAGCCAAGUCCUAAGUCAACAGAUCUUCUGUUGAUAUGGAUGCAGUUCACAGACUAAAUGUCGGUCGGGGAAGAUGUAUUCUUCUCAUAAGAUAUAGUCGGACCUCUCCUUAAUGGGAGCUAGCGGAUGAAGUGAUGCAACACUGGAGCCGCUGGGAACUAAUUUGUAUGCGAAAGUAUAUUGAUUAGUUUUGGAGUACUCGUGGUCG
Outline: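 Colonies from six replicate transformations of E. coli BL21(DE3) were pooled and amplicon-sequenced on an Illumina HiSeq 2500. The library placed an intron with all eight P1ex-region nucleotides randomised inside the knt kanamycin-resistance gene on pET-22b(+), and cells grew overnight at 37°C or 30°C on LB agar with or without 25 μg/mL kanamycin (plus 100 μg/mL carbenicillin, 50 μM IPTG, 0.2% rhamnose). Fitness is the DiMSum error-weighted combination of wild-type-normalised replicate fold changes, kanamycin versus none.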

| Sequence | self-splicing fitness (ln) (30 °C) | self-splicing fitness (ln) (37 °C) |
| --- | --- | --- |
| GUGCAGCAAUAUUACGUAUA | -1.42 ± 0.073 | 0.0392 ± 0.069 |
| GUGCAGCAAUAUUACGUAUC | -1.69 ± 0.13 | -1.79 ± 0.13 |
| GUGCAGCAAUAUUACGUUAG | -2.62 ± 0.14 | -0.353 ± 0.11 |
| GUGCAGCAAUAUUACGUUGC | -3.82 ± 0.31 | -2.93 ± 0.31 |
| GUGCAGCAAUAUUACGUUUC | -3.02 ± 0.11 | -0.289 ± 0.11 |
| GUGGAGCAAUAUUACGAAUG | -3.75 ± 0.4 | -1.77 ± 0.37 |
| GUGGAGCAAUAUUACGAGAG | -3.58 ± 0.22 | -2.7 ± 0.38 |
| GUGGAGCAAUAUUACGAGCU | -3.17 ± 0.26 | -2.01 ± 0.28 |
| GUGGAGCAAUAUUACGAUAU | -1.83 ± 0.17 | -0.975 ± 0.15 |
| GUGGAGCAAUAUUACGAUCG | – | -3.31 ± 0.47 |
| GUGGAGCAAUAUUACGAUUA | -2.1 ± 0.48 | -1.68 ± 0.34 |
| GUGGAGCAAUAUUACGAUUG | -1.98 ± 0.39 | – |
| GUGGAGCAAUAUUACGCAGG | – | -1.19 ± 0.28 |
| GUGGAGCAAUAUUACGCAUC | – | -2.03 ± 0.41 |
| GUGGAGCAAUAUUACGCAUU | -2.84 ± 0.22 | -1.14 ± 0.13 |
| GUGGAGCAAUAUUACGCGAG | – | -1.53 ± 0.38 |
| GUGGAGCAAUAUUACGGAAU | -3.23 ± 0.16 | -1.33 ± 0.17 |
| GUGGAGCAAUAUUACGGAUU | -3.15 ± 0.47 | – |
| GUGGAGCAAUAUUACGGGUG | -3.8 ± 0.37 | -2.9 ± 0.47 |
| GUGGAGCAAUAUUACGGUAC | -2.81 ± 0.14 | -1.71 ± 0.15 |
| GUGGAGCAAUAUUACGGUAU | -2.04 ± 0.23 | -1.71 ± 0.27 |
| GUGGAGCAAUAUUACGUAGG | -3.17 ± 0.29 | -0.82 ± 0.24 |
| GUGGAGCAAUAUUACGUCCU | -1.24 ± 0.14 | -0.219 ± 0.14 |
| GUGGAGCAAUAUUACGUGGA | -2.92 ± 0.28 | -3.07 ± 0.36 |
| GUGUAGCAAUAUUACGAACA | -1.66 ± 0.16 | -0.829 ± 0.12 |

| Sequence | self-splicing fitness (ln) (30 °C) | self-splicing fitness (ln) (37 °C) |
| --- | --- | --- |
| GUGUAGCAAUAUUACGACUU | -0.0355 ± 0.15 | -0.00223 ± 0.19 |
| GUGUAGCAAUAUUACGAGGG | -3.38 ± 0.44 | -2.99 ± 0.47 |
| GUGUAGCAAUAUUACGAGUA | – | -1.56 ± 0.19 |
| GUGUAGCAAUAUUACGAGUU | -2.8 ± 0.15 | -1.39 ± 0.11 |
| GUGUAGCAAUAUUACGAUGG | -2.91 ± 0.19 | -1.81 ± 0.18 |
| GUGUAGCAAUAUUACGCCAC | – | -1.07 ± 0.48 |
| GUGUAGCAAUAUUACGCUAU | – | -1.15 ± 0.24 |
| GUGUAGCAAUAUUACGCUGG | -3.59 ± 0.38 | -1.54 ± 0.22 |
| GUGUAGCAAUAUUACGGAGA | – | -2.36 ± 0.45 |
| GUGUAGCAAUAUUACGGAGU | -2.96 ± 0.17 | -2.61 ± 0.29 |
| GUGUAGCAAUAUUACGGAUG | -3.29 ± 0.41 | -0.59 ± 0.35 |
| GUGUAGCAAUAUUACGGCCU | -0.169 ± 0.073 | 0.685 ± 0.098 |
| GUGUAGCAAUAUUACGGCUC | -0.377 ± 0.064 | 0.195 ± 0.077 |
| GUGUAGCAAUAUUACGGCUU | -0.494 ± 0.078 | 0.195 ± 0.11 |
| GUGUAGCAAUAUUACGGGCA | -0.665 ± 0.18 | -1.29 ± 0.19 |
| GUGUAGCAAUAUUACGGGGG | -3.23 ± 0.41 | -2.07 ± 0.43 |
| GUGUAGCAAUAUUACGGUCA | -1.36 ± 0.14 | -2.06 ± 0.12 |
| GUGUAGCAAUAUUACGGUGA | -1.45 ± 0.11 | -0.916 ± 0.14 |
| GUGUAGCAAUAUUACGGUUU | -1.04 ± 0.086 | -0.738 ± 0.11 |
| GUGUAGCAAUAUUACGUAUA | -2.85 ± 0.49 | -0.725 ± 0.15 |
| GUGUAGCAAUAUUACGUUUC | -2.63 ± 0.13 | -1.92 ± 0.13 |
| GUUAAGCAAUAUUACGACUC | 0.708 ± 0.15 | 0.214 ± 0.17 |
| GUUAAGCAAUAUUACGAGAU | -2.48 ± 0.3 | -1.81 ± 0.35 |
| GUUAAGCAAUAUUACGAUUG | -3.09 ± 0.34 | -1.63 ± 0.34 |
| GUUAAGCAAUAUUACGCAAA | -2.21 ± 0.27 | -2.21 ± 0.22 |

| Sequence | self-splicing fitness (ln) (30 °C) | self-splicing fitness (ln) (37 °C) |
| --- | --- | --- |
| GUUAAGCAAUAUUACGCAUC | -2.3 ± 0.1 | -0.951 ± 0.095 |
| GUUAAGCAAUAUUACGCCUG | -0.512 ± 0.11 | -0.224 ± 0.12 |
| GUUAAGCAAUAUUACGCGAA | -2.09 ± 0.21 | 0.0507 ± 0.2 |
| GUUAAGCAAUAUUACGCUAU | – | -0.862 ± 0.32 |
| GUUAAGCAAUAUUACGCUCU | -1.24 ± 0.1 | -1.12 ± 0.11 |
| GUUAAGCAAUAUUACGGAUA | -2.09 ± 0.12 | -1.61 ± 0.16 |
| GUUAAGCAAUAUUACGGCUU | -1.22 ± 0.11 | -0.546 ± 0.14 |
| GUUAAGCAAUAUUACGGGUC | -1.33 ± 0.34 | -1.77 ± 0.41 |
| GUUAAGCAAUAUUACGGUGC | -2.42 ± 0.1 | -1.23 ± 0.12 |
| GUUAAGCAAUAUUACGUAAC | -3.15 ± 0.44 | – |
| GUUAAGCAAUAUUACGUAAU | -2.09 ± 0.079 | -1.49 ± 0.089 |
| GUUAAGCAAUAUUACGUACG | -1.83 ± 0.14 | -0.662 ± 0.14 |
| GUUAAGCAAUAUUACGUAUA | -1.79 ± 0.14 | -1.54 ± 0.15 |
| GUUAAGCAAUAUUACGUCCA | -1.21 ± 0.088 | 0.057 ± 0.097 |
| GUUAAGCAAUAUUACGUCUA | -0.524 ± 0.1 | -0.261 ± 0.099 |
| GUUAAGCAAUAUUACGUGAA | -1.75 ± 0.11 | -1.47 ± 0.16 |
| GUUAAGCAAUAUUACGUGGU | -2.79 ± 0.15 | -2.35 ± 0.19 |
| GUUAAGCAAUAUUACGUGUG | -1.93 ± 0.093 | -1.21 ± 0.098 |
| GUUAAGCAAUAUUACGUUAU | -1.62 ± 0.12 | -0.968 ± 0.13 |
| GUUAAGCAAUAUUACGUUCC | -2.16 ± 0.18 | -0.875 ± 0.23 |
| GUUCAGCAAUAUUACGAAUU | -1.52 ± 0.14 | -1.14 ± 0.14 |
| GUUCAGCAAUAUUACGAUAG | -2.65 ± 0.2 | -1.53 ± 0.18 |
| GUUCAGCAAUAUUACGAUGA | -1.07 ± 0.13 | -0.686 ± 0.19 |
| GUUCAGCAAUAUUACGAUUC | 0.118 ± 0.095 | 0.523 ± 0.11 |
| GUUCAGCAAUAUUACGCAAC | -2.96 ± 0.22 | -1.48 ± 0.21 |

| Sequence | self-splicing fitness (ln) (30 °C) | self-splicing fitness (ln) (37 °C) |
| --- | --- | --- |
| GUUCAGCAAUAUUACGCAUA | -0.815 ± 0.083 | 0.0985 ± 0.1 |
| GUUCAGCAAUAUUACGCAUC | -0.592 ± 0.12 | -0.361 ± 0.14 |
| GUUCAGCAAUAUUACGCCAG | -2.06 ± 0.29 | – |
| GUUCAGCAAUAUUACGCCCC | -0.521 ± 0.16 | -0.42 ± 0.19 |
| GUUCAGCAAUAUUACGCGUG | -0.852 ± 0.083 | 0.166 ± 0.088 |
| GUUCAGCAAUAUUACGCUAC | -3.75 ± 0.29 | -2.67 ± 0.26 |
| GUUCAGCAAUAUUACGCUGG | -4.05 ± 0.27 | -1.53 ± 0.13 |
| GUUCAGCAAUAUUACGCUGU | -3.2 ± 0.17 | -1.65 ± 0.12 |
| GUUCAGCAAUAUUACGGACU | -3.7 ± 0.14 | -2.88 ± 0.18 |
| GUUCAGCAAUAUUACGGAGA | – | -1.33 ± 0.29 |
| GUUCAGCAAUAUUACGGCGC | -0.314 ± 0.094 | 0.633 ± 0.13 |
| GUUCAGCAAUAUUACGGCUA | -0.564 ± 0.14 | -0.232 ± 0.15 |
| GUUCAGCAAUAUUACGGCUG | -3.59 ± 0.23 | -2.38 ± 0.26 |
| GUUCAGCAAUAUUACGGGGC | -2.68 ± 0.16 | -2.78 ± 0.21 |
| GUUCAGCAAUAUUACGUAAC | -0.462 ± 0.17 | -0.994 ± 0.26 |
| GUUCAGCAAUAUUACGUAUG | -2.03 ± 0.1 | -0.968 ± 0.099 |
| GUUCAGCAAUAUUACGUCUA | -1.14 ± 0.14 | -0.132 ± 0.13 |
| GUUCAGCAAUAUUACGUGAA | -1.32 ± 0.087 | -0.784 ± 0.11 |
| GUUCAGCAAUAUUACGUUCU | -0.734 ± 0.073 | -0.74 ± 0.087 |
| GUUCAGCAAUAUUACGUUGC | -3.13 ± 0.12 | -1.7 ± 0.11 |
| GUUGAGCAAUAUUACGAAUU | -3.8 ± 0.34 | -1.24 ± 0.34 |
| GUUGAGCAAUAUUACGACAG | -4.09 ± 0.36 | -2.49 ± 0.28 |
| GUUGAGCAAUAUUACGACGU | -0.544 ± 0.11 | -0.345 ± 0.12 |
| GUUGAGCAAUAUUACGAGGU | -3.2 ± 0.28 | – |
| GUUGAGCAAUAUUACGAUGG | -3.31 ± 0.47 | -2.7 ± 0.29 |
